In patent US12391762B2, “Methods and compositions relating to GLP1R variants” (Twist Bioscience Corporation, priority 2020, dated 2025):

Columns and labels:
[1] = Insulin Tolerance Test (ITT); format: in vivo, mouse; details: for Area Under the Curve (AUC) in ITT: vs control
Description: Animals. All animal procedures were approved by Institutional Animal Care and Use Committee (IACUC) at the University of California San Francisco and were conducted in accordance with the National Institutes of Health Guide for the Care and Use of laboratory Animals. C57BL/6NHsd (Envigo RMS, LLC) male littermates at 8-10 weeks of age, weighing ˜20-28 grams, were used in all the studies described. The mice were housed in a room that was temperature (22-25 C) and light controlled (12-h: 12-h light/dark cycle starting at 7 AM. The mice were fed with chow diet with 9% fat (PicoLab mouse Diet 20 (#5058), Lab Supply, Fortworth Texas, USA) for the duration of housing at the UCSF animal care facility.
1. mAb administered as a single dose, 15 hours prior to GTT and 21 hours prior to ITT. 2. mAb administered as a double dose, 15 hours prior to GTT and 21 hours prior to ITT plus a second mAb dose 2 hours prior to GTT and ITT. 3. mAb as a single dose 6 hours prior to GTT and ITT. 4. mAb single dose 2 hours prior to GTT and ITT.
Extendin 9-39 Peptide (MedChemExpress, Cat. No.: HY-P0264) were dosed at 1.0 or 0.23 mg/kg at three different administration regimen groups. 1. Extendin administered as a single dose, 21 hours prior to ITT. 2. Extendin administered as a double dose, 21 hours prior to ITT plus a second Extendin dose 2 hours prior to ITT. 3. mAb as a single dose 6 hours prior to ITT.
An Insulin Tolerance Test (ITT) was conducted to assess two different anti-GLP1 mAbs (agonist and antagonist) effect on insulin sensitivity following acute insulin administration. 8 or 10-week old male mice were fasted for 6 hours and body weight was recorded before and after fasting. To avoid circadian variations in mouse blood glucose levels this testing was performed at fixed times. Blood samples were collected by tail nick and baseline glucose was measured prior to insulin injection. Mice were injected, i.p., with a single bolus (0.75 U/Kg body weight) of human insulin (Novolin, Novo Nordisk) and blood glucose levels were measured at 15, 30, 45, 60 and 120 minutes after insulin injection. Blood glucose levels were monitored using a OneTouch Ultra 2 glucose monitor (LifeScan, Inc.).

[2] = molecular target: T1, GLP-1R (Homo sapiens, UniProt P43220); test: cAMP assays (agonist and antagonist mode), GLP-1R over-expressing CHO-K1 cells; format: cell-based; design: host or cells: CHO-K1; details: pre-incubation with fixed concentration of IgG (100 nM), then GLP-1 7-36 titration
Description: CAMP assays. GLP-1R IgG clones were tested for their potential effects on GLP-1R signaling by performing cAMP assays obtained from Eurofins DiscoverXX. The technology involved in detecting cAMP levels is a no wash gain-of-signal competitive immunoassay based on Enzyme Fragment Complementation technology. Experiments were designed to test for either agonist or antagonist activity of the IgG clones. To test for agonist activity of the IgGs, cells were stimulated with IgG incubating for 30 min at 37° C. […] Intracellular CAMP levels were detected by following the assay kit instructions.
Target sequence in this assay (P43220 24-463): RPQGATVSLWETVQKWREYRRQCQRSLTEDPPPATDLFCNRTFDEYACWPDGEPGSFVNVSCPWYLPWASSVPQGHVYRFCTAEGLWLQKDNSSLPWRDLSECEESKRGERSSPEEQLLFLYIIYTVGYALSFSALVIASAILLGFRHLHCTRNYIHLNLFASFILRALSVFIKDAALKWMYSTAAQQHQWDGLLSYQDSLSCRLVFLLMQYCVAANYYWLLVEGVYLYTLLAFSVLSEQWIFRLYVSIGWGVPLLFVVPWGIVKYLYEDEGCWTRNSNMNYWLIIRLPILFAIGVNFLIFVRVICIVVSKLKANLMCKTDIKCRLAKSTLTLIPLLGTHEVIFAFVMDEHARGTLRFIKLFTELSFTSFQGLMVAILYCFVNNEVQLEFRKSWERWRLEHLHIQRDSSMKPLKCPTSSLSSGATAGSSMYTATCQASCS

[3] = molecular target: T1, GLP-1R; test: Ec50; design: The full length human GLP-1R gene (UniProt-P43220) with an N-terminal FLAG tag and C-terminal GFP tag; expressed in transfected cells
Description: Table printed on a drawing sheet, FIG. 16A

[4] = Rat PK study, ELISA for human IgG in plasma; format: in vivo; details: 10 mg/kg IV, 2-week PK study, beta phase
Description: The rat PK study was done at Charles River Laboratories, One Innovation Dr, 3 Biotech, Worcester, MA 01605. 5 Male Sprague-Dawley rats per group were allowed to acclimate after receiving at test facility for a minimum of 3 days before dosing. […] Serial blood samples were collected via jugular vein cannula with ˜250 ul volume at each time point: pre-dose, 0.0833, 0.25, 0.5, 1, 2, 4, 8, 24, 48, 72, 96, 168, 240 and 336 hours post dose. Blood samples were collected into K2EDTA tubes and stored on wet ice until processed to plasma by centrifugation (3500 rpm for 10 minutes at 5° C.) within 30 minutes of collection. Plasma samples were then transferred into an appropriate tube containing DPP-4 (3.3 μL for 100 μL of plasma) and frozen on dry ice. To measure the human IgG in rat plasma samples, sheep anti-Human IgG (1 mg/mL) was used as coating reagent) (The binding site, Lot No. AU003.M), and goat anti-Human IgG, HRP (H&L) (1 mg/mL) was used as detection reagent) (Bethyl, cat #A80-319P) in an ELISA assay. Stock solutions of human IgG standards and QCs were prepared by spiking human IgG into rat plasma. […] The semi-logarithmic sigmoid calibration curve was obtained by plotting the absorbance response against concentration. Concentrations of analyte in the test samples were determined by computer interpolation from the plot of the calibration curve.

[5] = test system: CHO-parent cells; test: Flow cytometry binding assay on CHO-parent cells (background binding); design: species or system Chinese Hamster
Description: GLP-1R IgG clones were tested in a binding assay coupled to flow cytometry analysis as follows: FLAG-GLP-1R-GFP expressing CHO cells (CHO-GLP-1R) and CHO-parent cells were incubated with 100 nM IgG for 1 h on ice, washed three times and incubated with Alexa 647 conjugated goat-anti-human antibody (1:200) (Jackson ImmunoResearch Laboratories, 109-605-044) for 30 min on ice, followed by three washes, centrifuging to pellet the cells between each washing step. All incubations and washes were in buffer containing PBS+1% BSA. For titrations, IgG was serially diluted 1:3 starting from 100 nM down to 0.046 nM. Cells were analyzed by flow cytometry and hits (a hit is an IgG that specifically binds to CHO-GLP-1R) were identified by measuring the GFP signal against the Alexa 647 signal. Flow cytometry data of binding assays with 100 nM IgG are presented as dot plots. Analyses of binding assays with IgG titrations are presented as binding curves plotting IgG concentrations against MFI (mean fluorescence intensity).

[6] = molecular target: T1, GLP-1R; test: Beta arrestin recruitment assay, GLP-1R overexpressing CHO-K1 cells; format: cell-based; design: host or cells: CHO-K1; details: 100 nM IgG pre-incubated 1 hr
Description: Beta arrestin recruitment assy. β-arrestin recruitment assay was obtained from Eurofins DiscoverXX (Cat #93-0300E2) that utilized untagged GLP-1R overexpressing CHO-K1 cells. […] Expanded cells were seeded into 96 well plates at 5,000 cells/well, and the experiment was performed 48 hours after plating cells. […] Add 22.5 uL of detection solution to each well, tap gently and briefly spin down. Then incubate plates at RT for 1 hour in the dark. The plates were then read by a Chemiluminescence plate reader, Molecular Devices SpectraMax® M5, and output relative light units (RLU) data were analyzed using GraphPad Prism™.
Target sequence in this assay (P43220 24-463): as above

[7] = 19+2 hour, GLP1R-3 20 mg/kg, Exendin 1 mg/kg
[8] = 19+2 hours dosing regimen, C57BL/6NHsd mice
[9] = single 6 hour treatment, GLP1R-3 20 mg/kg, Exendin 1.0 and 0.23 mg/kg

With Exendin 9-39 [reference compound] the “Area Under the Curve (AUC) in ITT” value ([1]; 19+2 hour, Exendin 0.23 mg/kg) was “no significant difference”, the “Area Under the Curve (AUC) in ITT” value [1, 7] was “significant (p<0.0001)” and the “blood glucose after insulin challenge” value [1, 8] was “significantly stabilizes a higher blood glucose”. The “Area Under the Curve (AUC) in ITT” value [1, 9] was “no significant difference”.

B1: GLP1R-3: antagonist GLP-1R IgG with GLP-1 motif in CDRH3 (SEQ ID NO 20) (antibody)
heavy: QVQLVESGGGVVQPGRSLRLSCAASGFTFSSYGMHWVRQAPGKGLEWVSFISYDESNKYYADSVKGRFTISRDNSKNTLYLQMNSLRAEDTAVYYCAKHMSMQEGAVTGEGQAAKEFIAWLVKGRVRADLVGDAFDVWGQGTLVTVSSASTKGPSVFPLAPCSRSTSESTAALGCLVKDYFPEPVTVSWNSGALTSGVHTFPAVLQSSGLYSLSSVVTVPSSNFGTQTYTCNVDHKPSNTKVDKTVERKCCVECPPCPAPPVAGPSVFLFPPKPKDTLMISRTPEVTCVVVDVSHEDPEVQFNWYVDGVEVHNAKTKPREEQFNSTFRVVSVLTVVHQDWLNGKEYKCKVSNKGLPAPIEKTISKTKGQPREPQVYTLPPSREEMTKNQVSLTCLVKGFYPSDIAVEWESNGQPENNYKTTPPMLDSDGSFFLYSKLTVDKSRWQQGNVFSCSVMHEALHNHYTQKSLSLSPGK
light: QSVLTQPPSVSAAPGQKVTISCSGSSSNIADNYVSWYQQLPGTAPKLLIYDNNKRPSGIPDRFSGSKSGTSATLGITGLQTGDEADYYCGTWDNYLGAGVFGGGTKLTVLGQPKAAPSVTLFPPSSEELQANKATLVCLISDFYPGAVTVAWKADSSPVKAGVETTTPSKQSNNKYAASSYLSLTPEQWKSHRSYSCQVTHEGSTVEKTVAPTECS
With B1 the “antagonist activity: effect on GLP-1 7-36-induced GLP-1R cAMP signaling” value [2] was “clear dose-dependent inhibition of the CAMP signal”, the EC50 [3] was 3.94 nM and the “Area Under the Curve (AUC) in ITT” value [1, 7] was “significant (p<0.0001)”. The “blood glucose after insulin challenge” value [1, 8] was “significantly stabilizes a higher blood glucose”, the “blood glucose after insulin challenge” value ([1]; single 6 hour dosing regimen, comparator antibody experiment, 20 mg/kg) was “significantly stabilized a higher blood glucose” and the “blood glucose after insulin challenge” value ([1]; single 6 hour dosing regimen, compared to Exendin 9-39 or control) was “significantly stabilizes a higher blood glucose”. The “Area Under the Curve (AUC) in ITT” value [1, 9] was “significantly (p<0.05) stabilizes”, the “Area Under the Curve (AUC) in ITT” value ([1]; single 6 hour treatment, comparator antibody experiment, 20 mg/kg) was “significantly (p<0.05) stabilized” and the in vivo half-life [4] was ~1 week. For the same molecule, the “Median RL1-H of Parent Singlets” value ([5]; Table 6C, GLP1R-221 variants) was 234, the “Median RL1-H of Parent Singlets” value ([5]; Table 6D, GLP1R-222 variants) was 302.5 and the “Bmax CHO Parent” value ([5]; Table 6E, IgG titration) was 268. The “effect on GLP-1 7-36 induced β-arrestin recruitment” value [6] was “inhibition of GLP-1 7-36 peptide-induced beta arrestin recruitment”.
